# Experimental data from publication PMC7810988, “Inositol pyrophosphates promote the interaction of SPX domains with the coiled-coil motif of PHR transcription factors to regulate plant phosphate homeostasis”.
# B1: pAtSPX1 biotin (dsDNA)
# DNA 1: CAGAGAAAAAAGGATATTCTAATTAGAAACCTTAAGAATATTCTTTTTAATCCC
# DNA 2: GGGATTAAAAAGAATATTCTTAAGGTTTCTAATTAGAATATCCTTTTTTCTCTG
# B2: IRD800-pAtSPX1 (dsDNA)
# DNA 1: B1 DNA 1
# DNA 2: B1 DNA 2
# Legend:
# AtPHR1 MYB-CC Olig2 = AtPHR1 MYB-CC Olig2 (Arabidopsis thaliana, UniProt Q94CL7 222-358, L317N;L327N;I341N); assay: GCI; 4 C, 300 mM NaCl; GCI at 4 C: AtPHR1 in 20 mM HEPES pH 7.5, 300 mM NaCl; OsPHR2 in 20 mM HEPES pH 7.9, 200 mM NaCl. EMSA: LI-COR Odyssey kit buffer without optional components, 50 nM oligo, 30 min at room temperature, 5% TBE gel in 0.5x TBE; details: protein: recombinant; tags: His6 N-terminal, TEV-cleaved; label: 5'-biotin on strand 1; blunt
# AtPHR1 MYB-CC Olig1 = AtPHR1 MYB-CC Olig1 (Arabidopsis thaliana, UniProt Q94CL7 222-358, L319N;I333N;L337N); assay: EMSA; indistinguishable from wild type; GCI at 4 C: AtPHR1 in 20 mM HEPES pH 7.5, 300 mM NaCl; OsPHR2 in 20 mM HEPES pH 7.9, 200 mM NaCl. EMSA: LI-COR Odyssey kit buffer without optional components, 50 nM oligo, 30 min at room temperature, 5% TBE gel in 0.5x TBE; details: protein: recombinant; tags: His6 N-terminal, TEV-cleaved; label: 5'-IRD800 on both strands; blunt
# AtPHR1 MYB-CC Olig1, sequence (Q94CL7 222-358 L319N/I333N/L337N): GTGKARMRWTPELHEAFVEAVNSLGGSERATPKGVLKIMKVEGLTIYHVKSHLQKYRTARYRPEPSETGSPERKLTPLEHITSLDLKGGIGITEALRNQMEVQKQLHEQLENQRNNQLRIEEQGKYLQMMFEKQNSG
# AtPHR1 MYB-CC Olig2, sequence (Q94CL7 222-358 L317N/L327N/I341N): as the sequence (Q94CL7 222-358 L319N/I333N/L337N) above, with L96N, N98L, L106N, N112I, N116L, I120N counted along it
Binder,binding signal (AtPHR1 MYB-CC Olig2),binding result (AtPHR1 MYB-CC Olig1)
B1,~20 fold reduced affinity vs wild type,–
B2,–,binds
